{
  "source": "paper PMC3235549",
  "target": "Recombinant RNMT (human) (UniProt O43148)",
  "sequence (O43148 whole entry)": "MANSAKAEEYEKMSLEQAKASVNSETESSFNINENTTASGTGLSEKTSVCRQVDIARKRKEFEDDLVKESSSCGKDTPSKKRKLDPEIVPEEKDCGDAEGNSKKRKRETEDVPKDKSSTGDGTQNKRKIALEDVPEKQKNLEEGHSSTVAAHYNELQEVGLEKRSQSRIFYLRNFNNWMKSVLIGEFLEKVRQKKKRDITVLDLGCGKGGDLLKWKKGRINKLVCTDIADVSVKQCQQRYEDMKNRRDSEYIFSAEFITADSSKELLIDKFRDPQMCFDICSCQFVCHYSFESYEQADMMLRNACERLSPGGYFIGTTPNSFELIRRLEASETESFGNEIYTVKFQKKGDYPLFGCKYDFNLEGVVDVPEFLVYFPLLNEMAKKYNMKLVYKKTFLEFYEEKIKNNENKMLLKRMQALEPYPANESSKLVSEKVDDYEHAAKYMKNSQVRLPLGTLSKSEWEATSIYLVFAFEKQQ",
  "data": [
    {"substance": "Recombinant RAM (from UniProt Q9BTL3 1-118) (natural protein)", "values": [
      {"measurement": "in vitro cap methyltransferase assay, 20 nM RNMT with 20 nM RAM (Figure 3D)", "result": "> 4", "unit": "fold"}
    ]}
  ]
}
